In patent CN117192118A (DRAGONBOAT BIOPHARMACEUTICAL SHANGHAI CO LTD, dated 2023):

Columns and labels:
人CLDN18.2 [1] = molecular target: T1, 人CLDN18.2 (human, UniProt P56856-2 1-261, limits assumed); assay: BLI
T1 construct: The construct and its source are not described; P56856 is the CLDN18 entry; CLDN18.2 is its isoform 2 (A2)
T1 sequence (looked up): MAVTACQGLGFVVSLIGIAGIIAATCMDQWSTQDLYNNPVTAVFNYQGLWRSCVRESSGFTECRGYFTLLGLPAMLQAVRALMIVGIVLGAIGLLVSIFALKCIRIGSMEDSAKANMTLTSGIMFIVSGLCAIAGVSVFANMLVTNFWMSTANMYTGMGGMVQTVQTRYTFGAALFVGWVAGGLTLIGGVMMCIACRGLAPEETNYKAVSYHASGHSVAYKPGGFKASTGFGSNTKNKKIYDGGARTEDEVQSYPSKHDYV

人CD47 [2] = molecular target: T2, 人CD47 (human, UniProt Q08722 19-139, limits assumed); assay: BLI
T2 construct: The construct is not described

人CD47 [3] = molecular target: T2, 人CD47; assay: ELISA competition, blocking of CD47 binding to SIRPα
人CLDN18.2 [4] = molecular target: T1, 人CLDN18.2; assay: ELISA
人CD47 [5] = molecular target: T2, 人CD47; assay: ELISA

T2 sequence (Q08722 19-139 limits assumed): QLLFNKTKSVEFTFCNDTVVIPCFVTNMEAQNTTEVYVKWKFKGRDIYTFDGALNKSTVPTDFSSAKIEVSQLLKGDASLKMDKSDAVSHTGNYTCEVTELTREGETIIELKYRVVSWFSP

B1: 抗CD47-CLDN18.2双特异性抗体双抗A (bispecific antibody, human IgG1, kappa)
heavy: not shown
light: DIQMTQSPSSLSASVGDRVTITCRASQDISNHLNWYQQKPGKAPKLLIYYTSRIHSGVPSSFRGSGSGTDYTLTISSLQPEDIATYFCQQGYTLPFTFGSGTKLEIKRTVAAPSVFIFPPSDEQLKSGTASVVCLLNNFYPREAKVQWKVDNALQSGNSQESVTEQDSKDSTYSLSSTLTLSKADYEKHKVYACEVTHQGLSSPVTKSFNRGEC
notes: The short chain is the A7H3L3 kappa light chain; Expressed in CHO-K1; also called 本发明抗体
Work on B1 yielded a Kd (人CLDN18.2 [1]) of 0.00187 µM, a Kd (人CD47 [2]) of 0.0218 µM and an IC50 (人CD47 [3]) of 2.2 mg/L. It also gave an EC50 (人CLDN18.2 [4]) of 0.121 mg/L and an EC50 (人CD47 [5]) of 0.0462 mg/L.
